The target in experiment [1] is FGF receptor/BKL complex on HEK293 cells overexpressing human beta-klotho (BKL) (human) (UniProt Q86Z14). The experiment can be described thus: cell-based or functional assay.
The target of experiment [2] is FGFR1c receptor/BKL complex on differentiated mouse 3T3-L1 adipocytes (mouse) (UniProt P16092). The experiment can be described thus: cell-based or functional assay.
FGFR1c receptor/BKL complex on differentiated mouse 3T3-L1 adipocytes (mouse), sequence (P16092 22-822, chain 1 of 2): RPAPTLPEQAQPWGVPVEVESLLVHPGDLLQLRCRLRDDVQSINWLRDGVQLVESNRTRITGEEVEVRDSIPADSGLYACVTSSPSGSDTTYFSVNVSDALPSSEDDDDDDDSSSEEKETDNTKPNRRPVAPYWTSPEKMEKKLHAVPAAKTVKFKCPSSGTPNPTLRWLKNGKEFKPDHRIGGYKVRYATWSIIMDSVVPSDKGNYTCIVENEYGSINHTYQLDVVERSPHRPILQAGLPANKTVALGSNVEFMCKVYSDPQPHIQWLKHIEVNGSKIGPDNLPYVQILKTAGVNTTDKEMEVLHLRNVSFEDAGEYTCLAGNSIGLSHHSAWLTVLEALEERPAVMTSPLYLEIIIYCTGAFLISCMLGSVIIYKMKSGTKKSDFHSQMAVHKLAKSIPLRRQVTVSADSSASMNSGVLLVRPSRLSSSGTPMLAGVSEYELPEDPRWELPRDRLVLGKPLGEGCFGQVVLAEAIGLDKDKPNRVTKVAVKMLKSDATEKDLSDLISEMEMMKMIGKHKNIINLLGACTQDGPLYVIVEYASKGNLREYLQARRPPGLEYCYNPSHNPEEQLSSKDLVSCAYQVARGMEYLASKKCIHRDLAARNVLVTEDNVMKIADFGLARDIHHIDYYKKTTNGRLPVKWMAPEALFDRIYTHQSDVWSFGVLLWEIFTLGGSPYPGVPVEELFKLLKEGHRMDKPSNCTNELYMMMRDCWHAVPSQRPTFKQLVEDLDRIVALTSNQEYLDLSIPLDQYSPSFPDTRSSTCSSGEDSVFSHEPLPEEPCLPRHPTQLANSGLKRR
FGFR1c receptor/BKL complex on differentiated mouse 3T3-L1 adipocytes (mouse), sequence (Q99N32 whole entry, chain 2 of 2, further chain): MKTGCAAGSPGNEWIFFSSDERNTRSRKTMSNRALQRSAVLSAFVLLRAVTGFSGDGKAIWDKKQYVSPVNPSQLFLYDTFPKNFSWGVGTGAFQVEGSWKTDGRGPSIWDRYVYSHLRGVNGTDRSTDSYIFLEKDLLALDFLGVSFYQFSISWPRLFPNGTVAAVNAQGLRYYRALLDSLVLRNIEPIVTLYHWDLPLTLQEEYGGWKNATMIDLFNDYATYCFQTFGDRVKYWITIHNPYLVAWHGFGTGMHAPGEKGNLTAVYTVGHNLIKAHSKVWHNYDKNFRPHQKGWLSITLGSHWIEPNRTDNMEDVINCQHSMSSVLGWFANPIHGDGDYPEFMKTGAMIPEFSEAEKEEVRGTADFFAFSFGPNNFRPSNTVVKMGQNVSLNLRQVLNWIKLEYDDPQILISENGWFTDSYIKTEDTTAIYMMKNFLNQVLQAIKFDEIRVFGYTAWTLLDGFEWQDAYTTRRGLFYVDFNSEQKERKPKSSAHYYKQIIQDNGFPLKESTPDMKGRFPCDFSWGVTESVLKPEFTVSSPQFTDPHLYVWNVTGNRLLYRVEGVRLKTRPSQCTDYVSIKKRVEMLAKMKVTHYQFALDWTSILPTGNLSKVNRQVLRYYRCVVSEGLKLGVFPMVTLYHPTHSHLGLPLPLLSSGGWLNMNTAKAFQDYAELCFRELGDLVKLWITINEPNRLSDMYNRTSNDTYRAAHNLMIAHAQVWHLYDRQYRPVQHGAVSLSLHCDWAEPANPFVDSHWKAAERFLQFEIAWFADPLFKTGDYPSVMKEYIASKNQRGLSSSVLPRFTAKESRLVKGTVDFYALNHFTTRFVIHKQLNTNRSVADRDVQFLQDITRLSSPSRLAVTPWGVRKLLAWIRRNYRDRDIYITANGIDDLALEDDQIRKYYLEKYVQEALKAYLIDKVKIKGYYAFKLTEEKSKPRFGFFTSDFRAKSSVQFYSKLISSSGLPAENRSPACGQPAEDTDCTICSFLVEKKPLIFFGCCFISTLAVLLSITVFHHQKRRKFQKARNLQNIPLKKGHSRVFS

S{Beta-180}-2-aminoethylsulfanyl-Ala[Gln121,Leu168,Cys180,des181]FGF21, sequence (Q9NSA1 other isoform, or with tags, fused parts or gaps limits assumed): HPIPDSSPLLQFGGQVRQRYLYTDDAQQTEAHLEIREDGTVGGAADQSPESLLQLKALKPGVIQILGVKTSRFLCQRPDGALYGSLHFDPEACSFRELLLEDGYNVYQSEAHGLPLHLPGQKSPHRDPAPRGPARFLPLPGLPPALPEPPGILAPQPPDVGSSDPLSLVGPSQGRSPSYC
S{Beta-181}-2-aminoethylsulfanyl-Ala[Gln121,Leu168,Cys181]FGF21, sequence (Q9NSA1 other isoform, or with tags, fused parts or gaps limits assumed): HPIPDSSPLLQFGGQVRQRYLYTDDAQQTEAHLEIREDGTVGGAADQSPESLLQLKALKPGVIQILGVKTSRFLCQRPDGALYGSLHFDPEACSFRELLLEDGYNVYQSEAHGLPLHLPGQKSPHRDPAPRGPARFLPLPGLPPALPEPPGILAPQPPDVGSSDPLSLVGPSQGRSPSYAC
S{Beta-180}-2-aminoethylsulfanyl-Ala[Gln121,Leu168,Cys180]FGF21, sequence (Q9NSA1 other isoform, or with tags, fused parts or gaps limits assumed): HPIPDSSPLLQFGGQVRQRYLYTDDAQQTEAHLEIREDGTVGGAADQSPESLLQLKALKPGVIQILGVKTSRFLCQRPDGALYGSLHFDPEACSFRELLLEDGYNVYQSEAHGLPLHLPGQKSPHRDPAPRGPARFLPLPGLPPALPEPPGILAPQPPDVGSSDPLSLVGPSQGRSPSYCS
Ala[Gln121,Leu168]FGF21, sequence (Q9NSA1 other isoform, or with tags, fused parts or gaps limits assumed): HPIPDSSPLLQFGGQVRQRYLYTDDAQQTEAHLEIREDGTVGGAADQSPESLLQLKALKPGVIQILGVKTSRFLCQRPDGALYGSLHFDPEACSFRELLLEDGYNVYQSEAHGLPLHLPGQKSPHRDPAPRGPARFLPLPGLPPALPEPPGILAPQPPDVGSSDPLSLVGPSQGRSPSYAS
FGF receptor/BKL complex on HEK293 cells overexpressing human beta-klotho (BKL) (human), sequence (Q86Z14 whole entry, one chain of several): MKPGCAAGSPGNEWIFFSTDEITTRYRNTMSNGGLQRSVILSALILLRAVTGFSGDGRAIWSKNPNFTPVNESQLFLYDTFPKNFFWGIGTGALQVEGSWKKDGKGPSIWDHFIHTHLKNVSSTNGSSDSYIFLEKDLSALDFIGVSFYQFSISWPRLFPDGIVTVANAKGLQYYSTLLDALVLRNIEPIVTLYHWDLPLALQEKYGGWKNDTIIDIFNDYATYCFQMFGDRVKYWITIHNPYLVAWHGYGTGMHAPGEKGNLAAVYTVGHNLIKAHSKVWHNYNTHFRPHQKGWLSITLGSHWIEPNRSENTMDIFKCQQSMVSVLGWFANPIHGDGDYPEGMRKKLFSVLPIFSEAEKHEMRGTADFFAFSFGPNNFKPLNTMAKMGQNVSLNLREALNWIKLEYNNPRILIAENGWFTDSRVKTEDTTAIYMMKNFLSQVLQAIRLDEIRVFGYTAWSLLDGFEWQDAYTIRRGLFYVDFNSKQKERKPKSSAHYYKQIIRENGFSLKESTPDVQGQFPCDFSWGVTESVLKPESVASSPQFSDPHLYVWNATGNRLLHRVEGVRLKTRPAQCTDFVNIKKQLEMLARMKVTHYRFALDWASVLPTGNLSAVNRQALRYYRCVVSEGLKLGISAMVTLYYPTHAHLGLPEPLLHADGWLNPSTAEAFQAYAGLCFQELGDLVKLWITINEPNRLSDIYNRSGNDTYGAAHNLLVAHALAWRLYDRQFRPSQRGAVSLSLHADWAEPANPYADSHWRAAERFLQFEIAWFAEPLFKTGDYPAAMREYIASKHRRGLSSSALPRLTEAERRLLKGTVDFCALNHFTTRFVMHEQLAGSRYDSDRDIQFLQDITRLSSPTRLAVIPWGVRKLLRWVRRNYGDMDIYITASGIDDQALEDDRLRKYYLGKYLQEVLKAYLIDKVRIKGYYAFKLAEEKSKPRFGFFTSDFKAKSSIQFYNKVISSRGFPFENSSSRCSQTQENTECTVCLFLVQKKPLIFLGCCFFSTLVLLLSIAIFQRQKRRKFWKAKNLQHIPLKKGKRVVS
S{Beta-178}-2-aminoethylsulfanyl-Ala[Gln121,Leu168,Cys178]FGF21, sequence (Q9NSA1 other isoform, or with tags, fused parts or gaps limits assumed): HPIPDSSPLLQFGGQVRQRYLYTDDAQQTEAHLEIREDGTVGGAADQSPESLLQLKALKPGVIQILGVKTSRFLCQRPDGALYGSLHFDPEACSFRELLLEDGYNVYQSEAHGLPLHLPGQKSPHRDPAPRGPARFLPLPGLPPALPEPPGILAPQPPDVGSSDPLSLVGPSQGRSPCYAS
Ala[Gln121,Leu168,Cys174]FGF21, sequence (Q9NSA1 other isoform, or with tags, fused parts or gaps limits assumed): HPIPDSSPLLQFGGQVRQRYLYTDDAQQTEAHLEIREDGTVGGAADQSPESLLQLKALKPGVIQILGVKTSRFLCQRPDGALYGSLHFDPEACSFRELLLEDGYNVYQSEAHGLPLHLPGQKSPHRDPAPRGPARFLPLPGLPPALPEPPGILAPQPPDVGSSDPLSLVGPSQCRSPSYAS
Ala[Gln121,Leu168,Cys177]FGF21, sequence (Q9NSA1 other isoform, or with tags, fused parts or gaps limits assumed): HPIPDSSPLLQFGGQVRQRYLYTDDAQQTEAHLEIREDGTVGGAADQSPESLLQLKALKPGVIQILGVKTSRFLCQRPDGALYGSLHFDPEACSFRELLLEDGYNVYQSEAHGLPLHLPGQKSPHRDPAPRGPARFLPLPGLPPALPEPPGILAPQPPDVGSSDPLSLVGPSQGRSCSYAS

As to “S{Beta-181}-[2-[2-[[2-[2-[2-[[2-[2-[2-[[(4S)-4-carboxy-4-(17-carboxyheptadecanoyl-amino)butanoyl]amino]ethoxy]ethoxy]acetyl]amino]ethoxy]ethoxy]acetyl]amino]-ethylamino]-2-oxoethyl]-Ala[Gln121,Leu168,Cys181]FGF21 (from UniProt Q9NSA1 29-208) (ligand)”, in experiment [1], the EC50 (0.1% HSA) (nM), pERK, HEK293/BKL cells stood at 170 nM and the EC50 (nM), pERK, HEK293/BKL cells came to 42 nM. In experiment [2], this substance returned a Glucose uptake EC50 (nM), 3T3-L1 adipocytes of 56 nM and a Glucose uptake Emax (%), 3T3-L1 adipocytes of 73%.

In experiment [1], “S{Beta-180}-[2-[2-[[2-[2-[2-[[2-[2-[2-[[(4S)-4-carboxy-4-(11-carboxyundecanoyl-amino)butanoyl]amino]ethoxy]ethoxy]acetyl]amino]ethoxy]ethoxy]acetyl]amino]-ethylamino]-2-oxoethyl]-Ala[Gln121,Leu168,Cys180]FGF21 (from UniProt Q9NSA1 29-209) (ligand)” gave an EC50 (0.1% HSA) (nM), pERK, HEK293/BKL cells of 4 nM and an EC50 (nM), pERK, HEK293/BKL cells of 7 nM. In experiment [2], the Glucose uptake EC50 (nM), 3T3-L1 adipocytes worked out at 2.7 nM and the Glucose uptake Emax (%), 3T3-L1 adipocytes is 87%.

For “S{Beta-180}-2-aminoethylsulfanyl-Ala[Gln121,Leu168,Cys180]FGF21 (from UniProt Q9NSA1 29-209) (ligand)”, the EC50 (nM), pERK, HEK293/BKL cells in experiment [1] was 2.3 nM. In experiment [2], this substance registered a Glucose uptake EC50 (nM), 3T3-L1 adipocytes of 2.6 nM and a Glucose uptake Emax (%), 3T3-L1 adipocytes of 102%.

In experiment [1], “S{Beta-181}-[2-[2-[[2-[2-[2-[[2-[2-[2-[[(4S)-4-carboxy-4-(19-carboxynonadecanoyl-amino)butanoyl]amino]ethoxy]ethoxy]acetyl]amino]ethoxy]ethoxy]acetyl]amino]-ethylamino]-2-oxoethyl]-Ala[Gln121,Leu168,Cys181]FGF21 (from UniProt Q9NSA1 29-208) (ligand)” yielded an EC50 (0.1% HSA) (nM), pERK, HEK293/BKL cells of 434 nM and an EC50 (nM), pERK, HEK293/BKL cells of 58 nM. In experiment [2], this substance registered a Glucose uptake EC50 (nM), 3T3-L1 adipocytes of 410 nM and a Glucose uptake Emax (%), 3T3-L1 adipocytes of 57%.

For the substance “S{Beta-181}-[2-[2-[[2-[2-[2-[[2-[2-[2-[[(4S)-4-carboxy-4-(13-carboxytridecanoyl-amino)butanoyl]amino]ethoxy]ethoxy]acetyl]amino]ethoxy]ethoxy]acetyl]amino]-ethylamino]-2-oxoethyl]-Ala[Gln121,Leu168,Cys181]FGF21 (from UniProt Q9NSA1 29-208) (ligand)”, in experiment [1], the EC50 (0.1% HSA) (nM), pERK, HEK293/BKL cells came out at 41 nM and the EC50 (nM), pERK, HEK293/BKL cells was found to be 58 nM. In addition, in experiment [2], the Glucose uptake EC50 (nM), 3T3-L1 adipocytes stood at 7.2 nM and the Glucose uptake Emax (%), 3T3-L1 adipocytes stood at 55%.

Regarding “S{Beta-178}-2-aminoethylsulfanyl-Ala[Gln121,Leu168,Cys178]FGF21 (from UniProt Q9NSA1 29-209) (ligand)”, in experiment [1], the EC50 (nM), pERK, HEK293/BKL cells was 105 nM. Further, in experiment [2], the Glucose uptake EC50 (nM), 3T3-L1 adipocytes was determined as 50 nM and the Glucose uptake Emax (%), 3T3-L1 adipocytes was 69%.

Consider “S{Beta-180}-[2-[2-[[2-[2-[2-[[2-[2-[2-[[(4S)-4-carboxy-4-(17-carboxyheptadecanoyl-amino)butanoyl]amino]ethoxy]ethoxy]acetyl]amino]ethoxy]ethoxy]acetyl]amino]-ethylamino]-2-oxoethyl]-Ala[Gln121,Leu168,Cys180]FGF21 (from UniProt Q9NSA1 29-209) (ligand)”, for which, in experiment [1], the EC50 (0.1% HSA) (nM), pERK, HEK293/BKL cells turned out to be 48 nM and the EC50 (nM), pERK, HEK293/BKL cells turned out to be 5 nM. Further, in experiment [2], the Glucose uptake EC50 (nM), 3T3-L1 adipocytes came out at 32 nM and the Glucose uptake Emax (%), 3T3-L1 adipocytes turned out to be 109%.

In experiment [1], “S{Beta-181}-[2-[2-[[2-[2-[2-[[2-[2-[2-[[(4S)-4-carboxy-4-(15-carboxypentadecanoyl-amino)butanoyl]amino]ethoxy]ethoxy]acetyl]amino]ethoxy]ethoxy]acetyl]amino]-ethylamino]-2-oxoethyl]-Ala[Gln121,Leu168,Cys181]FGF21 (from UniProt Q9NSA1 29-208) (ligand)” showed an EC50 (0.1% HSA) (nM), pERK, HEK293/BKL cells of 72 nM and an EC50 (nM), pERK, HEK293/BKL cells of 55 nM. In experiment [2], this substance displayed a Glucose uptake EC50 (nM), 3T3-L1 adipocytes of 31 nM and a Glucose uptake Emax (%), 3T3-L1 adipocytes of 61%.

“S{Beta-180}-2-aminoethylsulfanyl-Ala[Gln121,Leu168,Cys180,des181]FGF21 (from UniProt Q9NSA1 29-207) (ligand)”: in experiment [1], the EC50 (nM), pERK, HEK293/BKL cells worked out at 20 nM. In experiment [2], this substance had a Glucose uptake EC50 (nM), 3T3-L1 adipocytes of 73 nM and a Glucose uptake Emax (%), 3T3-L1 adipocytes of 72%.

Consider “S{Beta-180}-[2-[2-[[2-[2-[2-[[2-[2-[2-[[(4S)-4-carboxy-4-(13-carboxytridecanoyl-amino)butanoyl]amino]ethoxy]ethoxy]acetyl]amino]ethoxy]ethoxy]acetyl]amino]-ethylamino]-2-oxoethyl]-Ala[Gln121,Leu168,Cys180]FGF21 (from UniProt Q9NSA1 29-209) (ligand)”, for which, in experiment [1], the EC50 (0.1% HSA) (nM), pERK, HEK293/BKL cells worked out at 6 nM and the EC50 (nM), pERK, HEK293/BKL cells was determined as 6 nM. Further, in experiment [2], the Glucose uptake EC50 (nM), 3T3-L1 adipocytes is 6.7 nM and the Glucose uptake Emax (%), 3T3-L1 adipocytes was 106%.

“S{Beta-180}-[2-[2-[[2-[2-[2-[[2-[2-[2-[[(4S)-4-carboxy-4-(15-carboxypentadecanoyl-amino)butanoyl]amino]ethoxy]ethoxy]acetyl]amino]ethoxy]ethoxy]acetyl]amino]-ethylamino]-2-oxoethyl]-Ala[Gln121,Leu168,Cys180]FGF21 (from UniProt Q9NSA1 29-209) (ligand)”: in experiment [1], the EC50 (0.1% HSA) (nM), pERK, HEK293/BKL cells was 6 nM and the EC50 (nM), pERK, HEK293/BKL cells worked out at 4 nM. In experiment [2], this substance had a Glucose uptake EC50 (nM), 3T3-L1 adipocytes of 9.1 nM and a Glucose uptake Emax (%), 3T3-L1 adipocytes of 98%.

In experiment [1], “S{Beta-179}-[2-[2-[[2-[2-[2-[[2-[2-[2-[[(4S)-4-carboxy-4-(15-carboxypentadecanoyl-amino)butanoyl]amino]ethoxy]ethoxy]acetyl]amino]ethoxy]ethoxy]acetyl]amino]-ethylamino]-2-oxoethyl]-Ala[Gln121,Leu168,Cys179]FGF21 (from UniProt Q9NSA1 29-209) (ligand)” yielded an EC50 (0.1% HSA) (nM), pERK, HEK293/BKL cells of 134 nM and an EC50 (nM), pERK, HEK293/BKL cells of 107 nM. In experiment [2], this substance gave a Glucose uptake EC50 (nM), 3T3-L1 adipocytes of 107 nM and a Glucose uptake Emax (%), 3T3-L1 adipocytes of 54%.

“S{Beta-181}-2-aminoethylsulfanyl-Ala[Gln121,Leu168,Cys181]FGF21 (from UniProt Q9NSA1 29-208) (ligand)” returned an EC50 (nM), pERK, HEK293/BKL cells in experiment [1] of 27 nM. In experiment [2], this substance returned a Glucose uptake EC50 (nM), 3T3-L1 adipocytes of 5 nM and a Glucose uptake Emax (%), 3T3-L1 adipocytes of 74%.

“Ala[Gln121,Leu168]FGF21 (from UniProt Q9NSA1 29-209) (ligand)” had an EC50 (nM), pERK, HEK293/BKL cells in experiment [1] of 2 nM. In experiment [2], this substance returned a Glucose uptake EC50 (nM), 3T3-L1 adipocytes of 3.1 nM and a Glucose uptake Emax (%), 3T3-L1 adipocytes of 85%.

Take “18-[[4-[[(1S)-4-[2-[2-[2-[2-[2-[2-[[(1S)-5-[(2-acetamido]-1-carboxy-pentyl]amino]-2-oxo-ethoxy]ethoxy]ethylamino]-2-oxo-ethoxy]ethoxy]ethylamino]-1-carboxy-4-oxo-butyl]carbamoyl]cyclohexyl]methylamino]-18-oxo-octadecanoic acid-Ala[Gln121,Leu168,Cys180]FGF21 (from UniProt Q9NSA1 29-209) (ligand)”: in experiment [1], the EC50 (0.1% HSA) (nM), pERK, HEK293/BKL cells was 14 nM and the EC50 (nM), pERK, HEK293/BKL cells worked out at 4 nM.

In the case of “S{Beta-176}-[2-[2-[[2-[2-[2-[[2-[2-[2-[[(4S)-4-carboxy-4-(15-carboxypentadecanoyl-amino)butanoyl]amino]ethoxy]ethoxy]acetyl]amino]ethoxy]ethoxy]acetyl]amino]-ethylamino]-2-oxoethyl]-Ala[Gln121,Leu168,Cys176]FGF21 (from UniProt Q9NSA1 29-209) (ligand)”, in experiment [1], the EC50 (0.1% HSA) (nM), pERK, HEK293/BKL cells is 373 nM and the EC50 (nM), pERK, HEK293/BKL cells is 214 nM.

As for “Ala[Gln121,Leu168,Cys177]FGF21 (from UniProt Q9NSA1 29-209) (ligand)”, the EC50 (nM), pERK, HEK293/BKL cells in experiment [1] was 416 nM.

In experiment [1], “S{Beta-169}-[2-[2-[[2-[2-[2-[[2-[2-[2-[[(4S)-4-carboxy-4-(15-carboxypentadecanoyl-amino)butanoyl]amino]ethoxy]ethoxy]acetyl]amino]ethoxy]ethoxy]acetyl]amino]-ethylamino]-2-oxoethyl]-Ala[Gln121,Leu168,Cys169]FGF21 (from UniProt Q9NSA1 29-209) (ligand)” returned an EC50 (0.1% HSA) (nM), pERK, HEK293/BKL cells of 20 nM and an EC50 (nM), pERK, HEK293/BKL cells of 25 nM.

For the substance “20-[[(1S)-4-[[(1S)-4-[2-[2-[2-[2-[2-[2-[[(1S)-5-acetamido-1-carboxy-pentyl]amino]-2-oxo-ethoxy]ethoxy]ethylamino]-2-oxo-ethoxy]ethoxy]ethylamino]-1-carboxy-4-oxo-butyl]amino]-1-carboxy-4-oxo-butyl]amino]-20-oxo-icosanoic acid-Ala[Gln121,Leu168,Cys180]FGF21 (from UniProt Q9NSA1 29-209) (ligand)”, in experiment [1], the EC50 (0.1% HSA) (nM), pERK, HEK293/BKL cells turned out to be 65.5 nM and the EC50 (nM), pERK, HEK293/BKL cells was 10.3 nM.

In the case of “Ala[Gln121,Leu168,Cys174]FGF21 (from UniProt Q9NSA1 29-209) (ligand)”, in experiment [1], the EC50 (nM), pERK, HEK293/BKL cells is 5 nM.

As for “4-[10-[[4-[2-[2-[2-[2-[2-[2-[[(1S)-5-acetamido-1-carboxy-pentyl]amino]-2-oxo-ethoxy]ethoxy]ethylamino]-2-oxo-ethoxy]ethoxy]ethylamino]-4-oxo-butyl]sulfonylamino]-10-oxo-decoxy]benzoic acid-Ala[Gln121,Leu168,Cys181]FGF21 (from UniProt Q9NSA1 29-208) (ligand)”, in experiment [1], the EC50 (0.1% HSA) (nM), pERK, HEK293/BKL cells is 132 nM and the EC50 (nM), pERK, HEK293/BKL cells was determined as 24.7 nM.

As for “16-[[4-[[(1S)-4-[2-[2-[2-[2-[2-[2-[[(1S)-5-[(2-acetamido]-1-carboxy-pentyl]amino]-2-oxo-ethoxy]ethoxy]ethylamino]-2-oxo-ethoxy]ethoxy]ethylamino]-1-carboxy-4-oxo-butyl]carbamoyl]cyclohexyl]methylamino]-16-oxo-hexadecanoic acid-Ala[Gln121,Leu168,Cys180]FGF21 (from UniProt Q9NSA1 29-209) (ligand)”, in experiment [1], the EC50 (0.1% HSA) (nM), pERK, HEK293/BKL cells was determined as 2.1 nM and the EC50 (nM), pERK, HEK293/BKL cells was 4 nM.

For the origin of these results see US20180140673A1.
